We go through eight molecules from patent US5567602A, “Recombinant production of chymase” (Arris Pharmaceutical Corporation, priority 1992, dated 1996).

Read-outs that look alike come from different tables or passages of the source.

The subject of one data set is human heart chymase. The conditions noted are these: none = 100, cited from earlier work.
For data set [1], the target named is T1, recombinant human chymase (Homo sapiens, UniProt P23946).
T1 construct: made in house; host or cells: Escherichia coli (XL1-Blue)
T1 sequence (P23946 22-247): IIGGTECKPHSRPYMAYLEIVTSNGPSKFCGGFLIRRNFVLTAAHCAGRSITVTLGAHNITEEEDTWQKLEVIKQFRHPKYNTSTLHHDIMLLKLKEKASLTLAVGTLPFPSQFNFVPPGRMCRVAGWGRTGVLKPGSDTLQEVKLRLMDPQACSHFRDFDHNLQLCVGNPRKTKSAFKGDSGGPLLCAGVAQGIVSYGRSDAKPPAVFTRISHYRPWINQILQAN
The data set is described as follows: Inhibitor profile of recombinant human chymase (residual activity, chromogenic substrate). Format: biochemical. The conditions noted are these: none = 100. The procedure: (§1) Assays for chymase activity were carried out in cuvettes, which contained, in 1 ml, 80 μg of the chromogenic substrate succinyl-L-PheProPhe-p-nitroanilide in 30 mM Tris-HCl, pH 8.0, 1M NaCl. Samples were placed in a spectrophotometer and set to zero absorbance. The assay was initiated by mixing in approximately 10 μg of protein and absorbance at 405 nm was monitored as a function of time. Chymase activity was determined from the specific activity (110 absorbance units/mg/min at 37° C.; Caughey et al., 1988, Bioch. Biophys. Acta 952:142-149) and the slope of the absorbance vs. time plot.
(§2) MBP-chymase fusion protein, recovered in the insoluble fraction from cell extracts, was resuspended in lysis buffer containing β-mercaptoethanol and 8M urea. After sonication to completely resuspend the pellet, the sample was dialyzed against 10 mM sodium phosphate buffer, pH 7.2 overnight. Insoluble material was removed by centrifugation and the fusion protein was then purified by amylose affinity chromatography as above. The fusion protein was eluted from the resin with maltose and dialyzed against 20 mM Tris-HCl, pH 8.0, 100 mM NaCl. The protein was then exchanged into reducing buffer #1 (0.1M Tris-HCl, pH 8.7, 1 mM EDTA, 6M guanidine-HCl, 0.15M NaCl, 0.3 M reduced glutathione) and incubated at room temperature for 2 hours. The sample was diluted 100-fold into oxidizing buffer #2 (0.1 Tris-HCl, pH 8.0, 1 mM EDTA, 0.15M NaCl, 0.3 mM oxidized glutathione), stirred for 2-48 hr at room temperature, and concentrated 100-fold to 285 μg/ml by ultrafiltration using an Amicon stirred flow cell. Factor Xa cleavage reactions were carried out at room temperature overnight. Ten μl samples were periodically removed and assayed for chymase activity in the presence or absence of various proteinase inhibitors. Several control experiments were also performed as described below.

A further data set has as its system Chymase. Conditions: general statement, no concentration; cited from earlier work.
Data set [2] relates to airway submucosal gland cells. Conditions: cited from earlier work.
The conditions of data set [3]: at 37° C.; Caughey et al., 1988; cited from earlier work.
Data set [4] is described as follows: Assay for chymase proteolytic activity on chromogenic substrate. Conditions: for activity released by Factor Xa: refolded fusion protein; for proteolytic activity on chromogenic substrate: not refolded, chymase substrate succinyl-L-PheProPhe-p-nitroanilide. Format: biochemical. The procedure:
as §1, §2

On to `CC(=O)N[C@@H](CC(C)C)C(=O)N[C@@H](CC(C)C)C(=O)N[C@H](C=O)CCCNC(=N)N` [LEU, leupeptin], for which the “% Residual Activity, Heart Chymase” value in the data set with human heart chymase (10 μM inhibitor) was 106%. For the same molecule, the remaining activity at 10 µM in data set [1] (10 μM inhibitor, read-out: % Residual Activity, Recombinant Enzyme) was found to be 100%.

Regarding `O=S(=O)(F)Cc1ccccc1` [PMSF, phenylmethylsulfonyl fluoride], in the data set on human heart chymase (1 mM inhibitor), the “% Residual Activity, Heart Chymase” value is 0%. The “% Residual Activity, Recombinant Enzyme” value in data set [1] (1 mM inhibitor) was found to be 0%.

On to `Cc1ccc(S(=O)(=O)N[C@@H](Cc2ccccc2)C(=O)CCl)cc1` [TPCK, ptosyl-L-phenylalanine chloromethyl ketone], for which, in the data set with human heart chymase (1 mM inhibitor), the “% Residual Activity, Heart Chymase” value is reported as 30%. Besides, in data set [1] (100 μM inhibitor, read-out: % Residual Activity, Recombinant Enzyme), the remaining activity at 100 µM was 0%.

B1: SBTI: soybean trypsin inhibitor (protein)
chain: DFVLDNEGNPLENGGTYYILSDITAFGGIRAAPTGNERCPLTVVQSRNELDKGIGTIISSPYRIRFIAEGHPLSLKFDSFAVIMLCVGIPTEWSVVEDLPEGPAVKIGENKDAMDGWFRLERVSDDEFNNYKLVFCPQQAEDDKCGDIGISIDHDDGTRRLVVSKNKPLVVQFQKLDKESL
On to B1, for which the “% Residual Activity, Heart Chymase” value in the data set on human heart chymase (1 μM inhibitor) and with human heart chymase (100 μM inhibitor) was 0% throughout. The “% Residual Activity, Recombinant Enzyme” value in data set [1] (25 μM inhibitor) was determined as 0%. For the same molecule, the inhibition of chymase result in the data set with Chymase is recorded as “inhibited”.

B2: Chymase: serine protease with chymotrypsin-like substrate specificity of mast cells (protein)
chain: IIGGTECKPHSRPYMAYLEIVTSNGPSKFCGGFLIRRNFVLTAAHCAGRSITVTLGAHNITEEEDTWQKLEVIKQFRHPKYNTSTLHHDIMLLKLKEKASLTLAVGTLPFPSQFNFVPPGRMCRVAGWGRTGVLKPGSDTLQEVKLRLMDPQACSHFRDFDHNLQLCVGNPRKTKSAFKGDSGGPLLCAGVAQGIVSYGRSDAKPPAVFTRISHYRPWINQILQAN
As to B2, the secretagogue activity result in data set [2] was “extremely potent secretagogue”. Further, the specific activity in data set [3] is given as 110 absorbance units/mg/min.

B3: recombinant human chymase: enzymatically active, recombinant human chymase released by Factor Xa cleavage of the refolded fusion protein (protein)
chain: IIGGTECKPHSRPYMAYLEIVTSNGPSKFCGGFLIRRNFVLTAAHCAGRSITVTLGAHNITEEEDTWQKLEVIKQFRHPKYNTSTLHHDIMLLKLKEKASLTLAVGTLPFPSQFNFVPPGRMCRVAGWGRTGVLKPGSDTLQEVKLRLMDPQACSHFRDFDHNLQLCVGNPRKTKSAFKGDSGGPLLCAGVAQGIVSYGRSDAKPPAVFTRISHYRPWINQILQAN
On to B3, for which, in data set [4] (refolded fusion protein cleaved by Factor Xa, hydrolysis of the chymase substrate), the “enzymatic activity of released recombinant human chymase” value is listed as “enzymatically active”. Further, the “activity released by Factor Xa” value came to 2.7 µg/mL in data set [4] (at 2 hours) and 4.6 µg/mL in data set [4] (at 5 hours, remained at this level for up to 24 hours).

B4: Free chymase: Free chymase, released by Factor Xa cleavage of the fusion protein (protein)
chain: IIGGTECKPHSRPYMAYLEIVTSNGPSKFCGGFLIRRNFVLTAAHCAGRSITVTLGAHNITEEEDTWQKLEVIKQFRHPKYNTSTLHHDIMLLKLKEKASLTLAVGTLPFPSQFNFVPPGRMCRVAGWGRTGVLKPGSDTLQEVKLRLMDPQACSHFRDFDHNLQLCVGNPRKTKSAFKGDSGGPLLCAGVAQGIVSYGRSDAKPPAVFTRISHYRPWINQILQAN
Turning to B4, in data set [4], the “proteolytic activity on chromogenic substrate” value was “inactive as a protease”.

B5: MBP-chymase: catalytic domain of human mast cell chymase fused to the maltose binding protein of Escherichia coli, wild type chymase amino acid sequence (protein)
chain: IEGRIIGGTECKPHSRPYMAYLEIVTSNGPSKFCGGFLIRRNFVLTAAHCAGRSITVTLGAHNITEEEDTWQKLEVIKQFRHPKYNTSTLHHDIMLLKLKEKASLTLAVGTLPFPSQFNFVPPGRMCRVAGWGRTGVLKPGSDTLQEVKLRLMDPQACSHFRDFDHNLQLCVGNPRKTKSAFKGDSGGPLLCAGVAQGIVSYGRSDAKPPAVFTRISHYRPWINQILQAN
With B5, the “enzymatic activity on the chymase substrate (control experiments)” value in data set [4] (Factor Xa alone, or fusion protein in the absence of Factor Xa) is reported as “did not result in detectable enzymatic activity”. In data set [4], the “proteolytic activity on chromogenic substrate” value is on record as “no detectable proteolytic activity”.
